Source: the supplement of paper PMC6757056
± gives the standard deviation of the averaged measurements.

B1: library; a variant is named by its letters at N, in order (parent)
chain: GCUGUCACCGAGAAACUGUGAAGUAUAUCUUAAACCUGGGCACUUAAAAGAUAUAUGGAGUUAGUAGUGCAACCUGCUCGGUCUGAUGAGUCCNNNNNNGGACGAAACAGC

Assays:
cyclic di-GMP [1] = variants of: B1; assay: FACS-Seq fitted mean relative fluorescence mCherry/BFP without ligand (log10 relative fluorescence); HEK293T; ligand: cyclic di-GMP (c-di-GMP-II aptamer); higher = higher reporter protein expression; conditions: ligand present: no
Outline: (§1)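 Fluorescence figures are normalized fitted normal means of sequenced bin counts. Enriched, lentivirally transduced HEK293T libraries with a ribozyme-switch mCherry reporter and EF1α-BFP were held 48 h with or without ligand, then sorted into 6 mCherry/BFP bins. PCR-amplified, barcoded genomic DNA from each bin was sequenced on MiSeq. Means of log10(mCherry/BFP) were scaled to five spiked-in control ribozymes.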

cyclic di-GMP [2] = variants of: B1; assay: normalized RNA/DNA level without ligand (relative to sTRSVctl = 100) (log10 (% of sTRSVctl)); HEK293T; ligand: cyclic di-GMP (c-di-GMP-II aptamer); higher = less ribozyme self-cleavage, higher mRNA level; conditions: reporter: mCherry (pCS4076), ligand present: no
Outline: (§2)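 RNA level was computed as RNA reads over DNA reads divided by a spiked-in non-cleaving sequence or by the top sequences, then scaled and log-transformed. Scaling was ×100 with log10, the top group was 25 sequences, and the threshold was ≥100 DNA reads. The reads came from HEK293T cells transfected at 4 µg per 6-well well with ribozyme switch library plasmids (mCherry, or eGFP in some ligand experiments). Total RNA was extracted with EDTA 72 h after transfection, with any ligand added 1 h before it.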

cyclic di-GMP [3] = variants of: B1; assay: FACS-Seq fitted mean relative fluorescence mCherry/BFP with ligand (log10 relative fluorescence); HEK293T; ligand: cyclic di-GMP (c-di-GMP-II aptamer); ligand concentration (+) FACS-Seq: 1 mM; higher = higher reporter protein expression; conditions: ligand present: yes
Outline: as §1

cyclic di-GMP [4] = variants of: B1; assay: normalized RNA/DNA level with ligand (relative to sTRSVctl = 100) (log10 (% of sTRSVctl)); HEK293T; ligand: cyclic di-GMP (c-di-GMP-II aptamer); ligand concentration (+) RNA-Seq: 1 mM; higher = less ribozyme self-cleavage, higher mRNA level; conditions: reporter: mCherry (pCS4076), ligand present: yes
Outline: as §2

Variant	FACS-Seq fitted mean (log10) (cyclic di-GMP [1])	normalized RNA/DNA level without ligand (log10) (cyclic di-GMP [2])	FACS-Seq fitted mean (log10) (cyclic di-GMP [3])	normalized RNA/DNA level with ligand (log10) (cyclic di-GMP [4])
AUUGAA	-0.159 ± 0.14	1.48 ± 0.079	0.152 ± 0.0043	1.66 ± 0.031
CUUAAU	-0.0367 ± 0.24	1.55 ± 0.096	0.142 ± 0.073	1.71 ± 0.1
CUUAAA	-0.598 ± 0.053	1.37 ± 0.072	-0.238 ± 0.21	1.53 ± 0.16
AAAAAG		1.45 ± 0.09		1.66 ± 0.082
AAAAAA		1.37 ± 0.12		1.6 ± 0.078
AAAAAU		1.547 ± 0.0027		1.72 ± 0.13
AAAAAC		1.61 ± 0.031		1.74 ± 0.13
CUCUAC	-0.26 ± 0.15	1.69 ± 0.038	-0.0375 ± 0.07	1.82 ± 0.11
CUCUAU	-0.312 ± 0.034	1.61 ± 0.036	-0.00561 ± 0.064	1.77 ± 0.096
CUCUAG	0.319 ± 0.13	1.764 ± 0.015	0.4467 ± 0.0016	1.83 ± 0.11
CUCUAA	-0.433 ± 0.11	1.4 ± 0.083	-0.0646 ± 0.21	1.61 ± 0.033
AUGUAU	-0.148 ± 0.067	1.61 ± 0.036	0.196 ± 0.014	1.82 ± 0.052
AUGUAC	-0.466 ± 0.057	1.6256 ± 0.0011	-0.129 ± 0.17	1.79 ± 0.077
GUGAGA	-0.476 ± 0.052	1.41 ± 0.058	-0.164 ± 0.051	1.6 ± 0.089
GUGUGC	-0.9793 ± 0.0011	1.4 ± 0.12	-0.724 ± 0.0079	1.63 ± 0.09
GUGAUG	-0.401 ± 0.17	1.54 ± 0.09	-0.137 ± 0.01	1.73 ± 0.068
GUGAUU	-0.56 ± 0.007	1.621 ± 0.01	-0.311 ± 0.025	1.79 ± 0.088
GUGAUC	-0.464 ± 0.047	1.15 ± 0.17	-0.114 ± 0.0038	1.27 ± 0.017
GUUUAU	-0.2549 ± 0.0013	1.652 ± 0.0032	-0.31 ± 0.34	1.81 ± 0.086
GUUAGG	-0.197 ± 0.021	1.56 ± 0.061	0.171 ± 0.057	1.72 ± 0.076
GUUAGA	-0.409 ± 0.02	1.51 ± 0.12	-0.0172 ± 0.12	1.73 ± 0.11
UUGAUG	-0.5233 ± 0.005	1.547 ± 0.013	-0.419 ± 0.053	1.75 ± 0.14
CUGUAU	-0.00585 ± 0.097	1.56 ± 0.039	0.2727 ± 0.0019	1.72 ± 0.07
GUGCAU	-0.575 ± 0.042	1.73 ± 0.028	-0.302 ± 0.062	1.85 ± 0.18
CUGCGA	-0.33 ± 0.01	1.65 ± 0.024	0.0519 ± 0.0084	1.8 ± 0.095
CUGCGG	0.154 ± 0.06	1.82 ± 0.042	0.241 ± 0.03	1.84 ± 0.087

Variant	FACS-Seq fitted mean (log10) (cyclic di-GMP [1])	normalized RNA/DNA level without ligand (log10) (cyclic di-GMP [2])	FACS-Seq fitted mean (log10) (cyclic di-GMP [3])	normalized RNA/DNA level with ligand (log10) (cyclic di-GMP [4])
UUGUAG	-0.163 ± 0.065	1.6682 ± 0.00036	0.112 ± 0.032	1.83 ± 0.14
UUGUAU	0.0117 ± 0.057	1.66 ± 0.051	0.163 ± 0.013	1.82 ± 0.16
CAAAAG		1.656 ± 0.0082		1.77 ± 0.14
AUUGUA	-0.397 ± 0.017	1.56 ± 0.031	0.0499 ± 0.075	1.71 ± 0.097
GUUCAU	-0.4248 ± 0.00049	1.69 ± 0.027	-0.137 ± 0.0014	1.85 ± 0.092
UUGAAA	-0.168 ± 0.075	1.607 ± 0.0064	-0.0658 ± 0.065	1.76 ± 0.14
UUGAAG	-0.189 ± 0.02	1.639 ± 0.0094	0.0171 ± 0.037	1.81 ± 0.12
UAAAAU		1.615 ± 0.00033		1.79 ± 0.099
UAAAAA		1.65 ± 0.048		1.78 ± 0.12
UAAAAC		1.697 ± 0.003		1.8 ± 0.1
UUUGUA	-0.5429 ± 0.0021	1.708 ± 0.002	-0.268 ± 0.088	1.85 ± 0.13
UUUGUU	-0.123 ± 0.13	1.73 ± 0.063	0.125 ± 0.064	1.86 ± 0.13
GAAAAC		1.59 ± 0.016		1.74 ± 0.063
AUUCCC	-0.55 ± 0.097	1.8 ± 0.045	-0.405 ± 0.018	1.89 ± 0.11
AUUCCA	-0.182 ± 0.1	1.7 ± 0.044	-0.0711 ± 0.041	1.88 ± 0.14
GUUAAG	-0.00319 ± 0.05	1.55 ± 0.05	0.189 ± 0.031	1.72 ± 0.098
GUUAAU	-0.336 ± 0.014	1.62 ± 0.041	-0.0912 ± 0.025	1.77 ± 0.067
UUGCGU	-0.322 ± 0.017	1.69 ± 0.035	-0.00149 ± 0.0032	1.86 ± 0.084
AUGAAA	-0.678 ± 0.011	1.4 ± 0.14	-0.502 ± 0.026	1.64 ± 0.1
AUGAAC	-0.0137 ± 0.15	1.649 ± 0.0059	0.334 ± 0.026	1.79 ± 0.1
AUUUAA	-0.437 ± 0.065	1.58 ± 0.074	-0.0871 ± 0.058	1.75 ± 0.078
CUGAAU	-0.0233 ± 0.075	1.43 ± 0.045	0.269 ± 0.11	1.61 ± 0.075
CUGAAA	-0.638 ± 0.031	1.28 ± 0.097	-0.374 ± 0.059	1.43 ± 0.12
UUGGCU	-0.121 ± 0.069	1.789 ± 0.009	0.192 ± 0.12	1.88 ± 0.15
GUCUUG	-0.245 ± 0.061	1.61 ± 0.052	0.124 ± 0.019	1.77 ± 0.12
UUUCGA	0.0382 ± 0.21	1.82 ± 0.041	0.251 ± 0.061	1.89 ± 0.079

Variant	FACS-Seq fitted mean (log10) (cyclic di-GMP [1])	normalized RNA/DNA level without ligand (log10) (cyclic di-GMP [2])	FACS-Seq fitted mean (log10) (cyclic di-GMP [3])	normalized RNA/DNA level with ligand (log10) (cyclic di-GMP [4])
AUGCCA	-0.283 ± 0.032	1.704 ± 0.0062	0.176 ± 0.089	1.84 ± 0.08
GUGAAU	-0.688 ± 0.083	1.57 ± 0.07	-0.318 ± 0.04	1.75 ± 0.12
GUGAAG	-0.453 ± 0.027	1.5 ± 0.067	-0.278 ± 0.08	1.66 ± 0.064
GUGAAA	-0.574 ± 0.012	1.41 ± 0.17	-0.227 ± 0.085	1.62 ± 0.059
CUUCUA	-0.605 ± 0.032	1.44 ± 0.072	-0.312 ± 0.059	1.67 ± 0.075
UUUUCG	-0.162 ± 0.14	1.78 ± 0.035	0.00347 ± 0.15	1.9 ± 0.12
CUUAGC	-0.863 ± 0.058	1.79 ± 0.00046	-0.484 ± 0.043	1.88 ± 0.11
AUGUGU	-0.484 ± 0.16	1.53 ± 0.043	-0.314 ± 0.021	1.77 ± 0.11
CAAACG		1.776 ± 0.013		1.84 ± 0.059
CUGUCA	-0.00992 ± 0.023	1.52 ± 0.13	0.247 ± 0.011	1.68 ± 0.13
GUGUUG	-0.394 ± 0.069	1.59 ± 0.068	-0.183 ± 0.047	1.74 ± 0.12
GUGUUA	-0.147 ± 0.075	1.58 ± 0.027	0.207 ± 0.022	1.77 ± 0.092
GUGUUC	-0.72254 ± 0.00049	1.39 ± 0.14	-0.527 ± 0.032	1.57 ± 0.14
GUUCGA	-0.345 ± 0.023	1.6 ± 0.018	0.045 ± 0.055	1.75 ± 0.12
GUUCGU	-0.35 ± 0.027	1.66 ± 0.01	0.0521 ± 0.011	1.8 ± 0.074
AUCUAC	-0.188 ± 0.047	1.7235 ± 0.00012	0.162 ± 0.094	1.81 ± 0.12
CUGUUA	-0.289 ± 0.046	1.33 ± 0.091	0.158 ± 0.13	1.58 ± 0.084
GUGGUA	-0.522 ± 0.03	1.58 ± 0.059	-0.23 ± 0.015	1.72 ± 0.08
GUGGUG	-0.455 ± 0.011	1.69 ± 0.036	-0.117 ± 0.042	1.83 ± 0.12
GUGGUC	-0.682 ± 0.026	1.25 ± 0.077	-0.386 ± 0.015	1.46 ± 0.099
UUUAAC	0.0586 ± 0.15	1.7 ± 0.022	0.264 ± 0.026	1.84 ± 0.099
UUUAAU	0.192 ± 0.051	1.698 ± 0.015	0.405 ± 0.0074	1.84 ± 0.08
AAAACA		1.51 ± 0.072		1.7 ± 0.074
AAAACC		1.68 ± 0.014		1.81 ± 0.083
CUUGGA	-0.381 ± 0.03	1.55 ± 0.031	-0.107 ± 0.044	1.73 ± 0.16
